{"source": "paper PMC4357503", "key": {"[1]": {"molecular_target": "T1, GST-Puf4p (UniProt P25339 1-888)", "T1 sequence": "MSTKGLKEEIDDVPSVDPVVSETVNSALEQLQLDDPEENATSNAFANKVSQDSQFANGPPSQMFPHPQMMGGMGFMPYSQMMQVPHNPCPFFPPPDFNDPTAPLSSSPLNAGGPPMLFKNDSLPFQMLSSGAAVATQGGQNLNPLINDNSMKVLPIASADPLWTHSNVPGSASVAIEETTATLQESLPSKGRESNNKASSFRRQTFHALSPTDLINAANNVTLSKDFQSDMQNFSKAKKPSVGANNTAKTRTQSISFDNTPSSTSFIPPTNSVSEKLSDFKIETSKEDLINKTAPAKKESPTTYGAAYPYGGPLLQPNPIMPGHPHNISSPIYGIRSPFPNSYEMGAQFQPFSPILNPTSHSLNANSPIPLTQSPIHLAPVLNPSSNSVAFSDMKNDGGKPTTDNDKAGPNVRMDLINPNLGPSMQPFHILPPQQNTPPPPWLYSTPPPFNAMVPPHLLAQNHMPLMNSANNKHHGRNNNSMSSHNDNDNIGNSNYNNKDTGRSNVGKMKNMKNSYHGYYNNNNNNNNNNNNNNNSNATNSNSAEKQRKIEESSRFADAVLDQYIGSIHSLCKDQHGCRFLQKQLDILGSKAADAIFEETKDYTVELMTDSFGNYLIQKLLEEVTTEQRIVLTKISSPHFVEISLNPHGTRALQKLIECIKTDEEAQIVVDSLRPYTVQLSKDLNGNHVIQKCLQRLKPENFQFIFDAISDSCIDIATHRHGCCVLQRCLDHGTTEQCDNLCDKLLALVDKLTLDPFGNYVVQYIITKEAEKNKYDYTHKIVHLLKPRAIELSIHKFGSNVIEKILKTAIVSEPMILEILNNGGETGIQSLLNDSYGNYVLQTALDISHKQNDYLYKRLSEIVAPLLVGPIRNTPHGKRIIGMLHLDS", "assay": "EMSA"}, "[2]": {"molecular_target": "T2, GST-Puf1p (UniProt P47135 1-1091)", "T2 sequence": "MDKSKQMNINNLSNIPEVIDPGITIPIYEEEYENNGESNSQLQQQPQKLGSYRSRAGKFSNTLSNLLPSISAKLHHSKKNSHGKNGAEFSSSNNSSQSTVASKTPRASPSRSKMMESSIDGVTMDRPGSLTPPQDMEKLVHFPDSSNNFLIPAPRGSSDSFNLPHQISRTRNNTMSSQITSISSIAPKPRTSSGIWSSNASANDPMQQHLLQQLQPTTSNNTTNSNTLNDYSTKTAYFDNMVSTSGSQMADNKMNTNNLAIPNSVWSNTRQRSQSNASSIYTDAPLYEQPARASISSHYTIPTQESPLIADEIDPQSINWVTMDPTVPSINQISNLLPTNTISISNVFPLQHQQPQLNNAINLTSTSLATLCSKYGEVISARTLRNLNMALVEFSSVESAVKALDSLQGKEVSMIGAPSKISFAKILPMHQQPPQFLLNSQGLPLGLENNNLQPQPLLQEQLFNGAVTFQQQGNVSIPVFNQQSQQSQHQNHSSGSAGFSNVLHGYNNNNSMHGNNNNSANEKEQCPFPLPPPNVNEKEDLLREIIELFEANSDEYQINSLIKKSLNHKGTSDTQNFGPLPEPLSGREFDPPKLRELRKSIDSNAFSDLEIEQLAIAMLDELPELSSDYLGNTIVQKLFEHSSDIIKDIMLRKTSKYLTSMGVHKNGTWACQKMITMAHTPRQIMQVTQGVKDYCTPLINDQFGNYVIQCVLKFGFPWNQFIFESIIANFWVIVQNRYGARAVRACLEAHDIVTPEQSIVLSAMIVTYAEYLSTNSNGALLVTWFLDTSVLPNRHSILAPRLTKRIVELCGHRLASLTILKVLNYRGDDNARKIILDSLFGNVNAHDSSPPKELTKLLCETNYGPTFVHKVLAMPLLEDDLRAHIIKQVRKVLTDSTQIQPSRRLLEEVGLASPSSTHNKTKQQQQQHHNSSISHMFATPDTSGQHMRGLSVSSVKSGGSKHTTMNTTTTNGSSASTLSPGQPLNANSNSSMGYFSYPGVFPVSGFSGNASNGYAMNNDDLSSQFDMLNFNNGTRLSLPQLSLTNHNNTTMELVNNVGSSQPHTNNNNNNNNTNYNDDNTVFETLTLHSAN", "assay": "EMSA"}}}
{"binder": "GUAAAGAUUGUGUAUGUAUUUAUAAGAUGAAUA (ssRNA)", "note": "[YHB1 WT PRE (oWO898)]", "values": [{"measurement": "binding result", "setting": "[1]", "result": "binds"}, {"measurement": "binding result", "setting": "[2]", "result": "binds"}]}
